Measurements reported in the supplement of paper PMC10724198.
± gives the standard deviation of the averaged measurements.

Columns and labels:
[1] = system: Saccharomyces cerevisiae; experiment: protein stability index of tFT-peptide fusion in wild type (PSI (0-1 scale)); higher = more stable (slower turnover); conditions: genetic background: wild type
Description: (§1)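 MPS profiling in S. cerevisiae of two library types built from selected 12-aa C-degron peptides (IN1, IN2, LN1, LN3, VN2, R1-R5, W1-W3, Atg1 and Rpa12 C-termini): saturation mutagenesis libraries and C-terminal +1 capping libraries (13 aa). Each peptide is fused to the C-terminus of a sfGFP-mCherry timer, after a GGGS linker. Cells are FACS-sorted into 8 mCherry/sfGFP bins and sequenced. PSI runs from 0 (unstable) to 1 (stable), measured once in wild type and in the das1Δ or doa10Δ background.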

[2] = system: Saccharomyces cerevisiae; experiment: protein stability index of tFT-peptide fusion (C-terminal peptide) (PSI (0-1 scale)); higher = more stable (slower turnover)
Description: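 MPS profiling in S. cerevisiae of the tFT-X12 degron library: putative degron peptides plus stable controls, 12 aa, fused to the C-terminus of a sfGFP-mCherry timer. Cells are FACS-sorted into 8 mCherry/sfGFP bins and deep-sequenced. PSI runs from 0 (unstable) to 1 (stable). Backgrounds are wild type, das1Δ and doa10Δ at 30 °C, and wild type, das1Δ, cdc34-1 and cdc53-1 at 37 °C; 2-3 technical replicates each.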

[3] = system: Saccharomyces cerevisiae; experiment: as above; conditions: genetic background: wild type; temperature: 30 C
[4] = system: Saccharomyces cerevisiae; experiment: protein stability index of tFT-peptide fusion in deletion strain of DAS1 (PSI (0-1 scale)); higher = more stable (slower turnover)
Description: as §1
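Throughout, for protein stability index of tFT-peptide fusion (C-terminal peptide): PSI is a weighted mean of sequencing reads over stability bins, variants kept only with over 10 reads, mCherry proximal and sfGFP distal, peptide attached via GGGS linker.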
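Throughout, for protein stability index of tFT-peptide fusion in deletion strain of DAS1: PSI is a weighted mean of each variant's read distribution over the sorted stability bins, computed only for variants having over 10 reads in total.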
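Throughout, for protein stability index of tFT-peptide fusion in wild type: PSI derived as read-weighted mean over the 8 sorting bins, only variants exceeding 10 total reads kept, mCherry placed adjacent to the peptide and sfGFP distal.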

Sequence | protein stability index [1] | protein stability index [4] | further results
ARWRVGLWRGAS | 0.37 | 0.679 | protein stability index ([2]; genetic background: cdc34-1, temperature: 37 C): 0.66 ± 0.033; protein stability index ([2]; genetic background: cdc53-1, temperature: 37 C): 0.7486 ± 0.0018; protein stability index ([2]; genetic background: das1 deletion, temperature: 30 C): 0.648 ± 0.021; protein stability index ([2]; genetic background: das1 deletion, temperature: 37 C): 0.764 ± 0.011; protein stability index ([2]; genetic background: doa10 deletion, temperature: 30 C): 0.259 ± 0.0043; protein stability index ([2]; genetic background: wild type, temperature: 30 C): 0.3 ± 0.035; protein stability index ([2]; genetic background: wild type, temperature: 37 C): 0.612 ± 0.012; protein stability index [3]: 0.448 ± 0.028
ARWRVGLWRGAQ | 0.411 | 0.679 | –
PCKRNHLIKLLN | 0.112 | 0.614 | –
RLIQPLKVQFLN | 0.054 | 0.805 | –
VRGAYGGWRLVG | 0.114 | 0.664 | –
HKHKKGQKQKIN | 0.114 | 0.604 | –
CRGAVGGWRLVG | 0.163 | 0.647 | –
PSLAASFSRVVG | 0.665 | 0.631 | –
LIVYLSCVACIN | 0.0145 | 0.0335 | –
LKILRQKKNHQN | 0.312 | 0.678 | –
WRWRVGLWRGAS | 0.186 | 0.764 | –
LVVVLSCVACIN | 0.0126 | 0.0377 | –
RLIQPDPVQFLN | 0.216 | 0.565 | –
PSLAASFWRVVS | 0.15 | 0.641 | –
GVVYLSCVACIN | 0.0144 | 0.0346 | –
CTSCGLKFRTNN | 0.34 | 0.691 | –
KKHKKGQKQKHN | 0.439 | 0.653 | –
RLIQPLPVQILN | 0.309 | 0.774 | –
FSMRWTYRYWVN | 0.0544 | 0.504 | –
KKHKTGQKQKIN | 0.0826 | 0.628 | –
CTNCGYKFRTNN | 0.216 | 0.696 | –
LKILRQTMNHQN | 0.224 | 0.677 | –

Sequence | protein stability index [1] | protein stability index [4] | further results
KYHKKGQKQKIN | 0.0981 | 0.595 | –
CTSEGYKFRTNN | 0.507 | 0.68 | –
CTSCGYKFSTNN | 0.684 | 0.713 | –
LVMYLSCVACIN | 0.0125 | 0.135 | –
PSLAASFWRVVGY | 0.658 | 0.684 | –
LRGAVGGWRLVG | 0.149 | 0.681 | –
CTSCGAKFRTNN | 0.502 | 0.723 | –
FDMRWTFRYWVN | 0.089 | 0.557 | –
KKHKKGQKQYIN | 0.24 | 0.678 | –
LKILRQKMNHHN | 0.247 | 0.688 | –
FSMDWTFRYWVN | 0.0547 | 0.543 | –
AIWRVGLWRGAS | 0.405 | 0.69 | –
RLCQPLPVQFLN | 0.0327 | 0.612 | –
LKIYRQKMNHQN | 0.182 | 0.689 | –
GSLAASFWRVVG | 0.147 | 0.689 | –
QTSCGYKFRTNN | 0.206 | 0.673 | –
PDKRCHLIKLLN | 0.0642 | 0.596 | –
CTSCYYKFRTNN | 0.199 | 0.639 | –
CTSCGVKFRTNN | 0.486 | 0.692 | –
KRGAVGGWRLVG | 0.165 | 0.648 | –
VRGAVGGWKLVG | 0.203 | 0.679 | –
CTCCGYKFRTNN | 0.294 | 0.676 | –

Sequence | protein stability index [1] | protein stability index [4] | further results
FSMRWTFRMWVN | 0.0197 | 0.31 | –
STSCGYKFRTNN | 0.237 | 0.669 | –
FEMRWTFRYWVN | 0.0443 | 0.437 | –
LKILRQKMNHQNQ | 0.623 | 0.685 | –
FSMRWHFRYWVN | 0.0543 | 0.756 | –
ETSCGYKFRTNN | 0.266 | 0.672 | –
LKILTQKMNHQN | 0.276 | 0.688 | –
CTSCGYKFRTNY | 0.611 | 0.742 | –
LVVYLSCVACIT | 0.0143 | 0.0345 | –
LKILRQKMNHWN | 0.216 | 0.666 | –
KKHKKGQKQKFN | 0.307 | 0.635 | –
CTTCGYKFRTNN | 0.267 | 0.677 | –
LKILRKKMNHQN | 0.224 | 0.662 | –
ARWRVGLLRGAS | 0.652 | 0.669 | –
PDKQNHLIKLLN | 0.189 | 0.593 | –
CTSCGYKFRDNN | 0.673 | 0.663 | –
CTSCGYKFRTNR | 0.696 | 0.692 | –
VRGAVGGWRLSG | 0.403 | 0.67 | –
PRLAASFWRVVG | 0.197 | 0.691 | –
PDKRNHLIKFLN | 0.112 | 0.583 | –
PSLAAHFWRVVG | 0.155 | 0.694 | –
VNGAVGGWRLVG | 0.141 | 0.68 | –

Sequence | protein stability index [1] | protein stability index [4] | further results
FSMPWTFRYWVN | 0.11 | 0.598 | –
ERWRVGLWRGAS | 0.378 | 0.741 | –
LKIWRQKMNHQN | 0.176 | 0.687 | –
LKILRQKMNHQNC | 0.606 | 0.661 | –
PRGAVGGWRLVG | 0.169 | 0.671 | –
LSILRQKMNHQN | 0.127 | 0.675 | –
ARTRVGLWRGAS | 0.598 | 0.66 | –
SKHKKGQKQKIN | 0.153 | 0.625 | –
RFIQPLPVQFLN | 0.0529 | 0.54 | –
PTSCGYKFRTNN | 0.219 | 0.677 | –
LKILRQKMWHQN | 0.238 | 0.657 | –
LVVYLSCSACIN | 0.0177 | 0.0361 | –
VRGAVGGSRLVG | 0.642 | 0.669 | –
PSLAASFWRVVGC | 0.664 | 0.685 | –
RLIQPLPIQFLN | 0.0384 | 0.593 | –
CESCGYKFRTNN | 0.327 | 0.681 | –
FSMIWTFRYWVN | 0.0367 | 0.301 | –
KKGKKGQKQKIN | 0.11 | 0.592 | –
LKILRQKMMHQN | 0.232 | 0.62 | –
PIKRNHLIKLLN | 0.157 | 0.622 | –
PDKRNHLIKLLY | 0.328 | 0.587 | –
WDKRNHLIKLLN | 0.113 | 0.602 | –

Sequence | protein stability index [1] | protein stability index [4] | further results
KKHKKGQFQKIN | 0.112 | 0.618 | –
LVVYLSCVANIN | 0.0173 | 0.0788 | –
RLIQPLPVQFHN | 0.24 | 0.616 | –
FSMRWTFRYWCN | 0.081 | 0.516 | –
KKHKKVQKQKIN | 0.165 | 0.619 | –
KKHWKGQKQKIN | 0.112 | 0.594 | –
LVVYLQCVACIN | 0.0274 | 0.0353 | –
LKILRQKMNHQF | 0.255 | 0.678 | –
PSLAVSFWRVVG | 0.137 | 0.673 | –
KKHGKGQKQKIN | 0.0862 | 0.707 | –
PSLAAIFWRVVG | 0.138 | 0.645 | –
PWKRNHLIKLLN | 0.0786 | 0.606 | –
MDKRNHLIKLLN | 0.111 | 0.702 | –
FTMRWTFRYWVN | 0.0324 | 0.428 | –
LKILRQKMNHFN | 0.21 | 0.675 | –
ARWRVGLWRGNS | 0.553 | 0.68 | –
VRGAVGLWRLVG | 0.164 | 0.675 | –
RLIQPLPVQFLL | 0.2 | 0.586 | –
